Numbered stars: 1 amine (or outer) side, 2 acyl side, 3 side chain; on linkers, the order of the positions; unused ones are H or OH. Square brackets hold non-standard residues; d marks the D form. Side chains are listed from the residue outwards. * marks the point of attachment. C20 diacid = O=C(O)CCCCCCCCCCCCCCCCCCC(=O)*; C18 diacid = O=C(O)CCCCCCCCCCCCCCCCC(=O)*; γGlu = O=C(O)[C@H](CCC(=O)[*:2])N[*:1]; KEK = Lys-Glu-Lys peptide sequence; AEEA = NCCOCCOCC(=O)O; Aib = CC(C)(N)C(=O)O
B1: Compound 2 (peptide)
peptide: H-H[Aib]EGSFTSELATILDK([γGlu-C18 diacid])EAARDFIAWLIEHKITD-OH
SMILES: CC[C@H](C)[C@H](NC(=O)[C@H](Cc1ccccc1)NC(=O)[C@H](CC(=O)O)NC(=O)[C@H](CCCNC(=N)N)NC(=O)[C@H](C)NC(=O)[C@H](C)NC(=O)[C@H](CCC(=O)O)NC(=O)[C@H](CCCCNC(=O)CC[C@H](NC(=O)CCCCCCCCCCCCCCCCC(=O)O)C(=O)O)NC(=O)[C@H](CC(=O)O)NC(=O)[C@H](CC(C)C)NC(=O)[C@@H](NC(=O)[C@@H](NC(=O)[C@H](C)NC(=O)[C@H](CC(C)C)NC(=O)[C@H](CCC(=O)O)NC(=O)[C@H](CO)NC(=O)[C@@H](NC(=O)[C@H](Cc1ccccc1)NC(=O)[C@H](CO)NC(=O)CNC(=O)[C@H](CCC(=O)O)NC(=O)C(C)(C)NC(=O)[C@@H](N)Cc1c[nH]cn1)[C@@H](C)O)[C@@H](C)O)[C@@H](C)CC)C(=O)N[C@@H](C)C(=O)N[C@@H](Cc1c[nH]c2ccccc12)C(=O)N[C@@H](CC(C)C)C(=O)N[C@H](C(=O)N[C@@H](CCC(=O)O)C(=O)N[C@@H](Cc1c[nH]cn1)C(=O)N[C@@H](CCCCN)C(=O)N[C@H](C(=O)N[C@H](C(=O)N[C@@H](CC(=O)O)C(=O)O)[C@@H](C)O)[C@@H](C)CC)[C@@H](C)CC
B2: Compound 1 (peptide)
peptide: H-H[Aib]EGTFSSELATILDK([γGlu-C18 diacid])EAARDFIAWLIEHKITD-OH
SMILES: CC[C@H](C)[C@H](NC(=O)[C@H](Cc1ccccc1)NC(=O)[C@H](CC(=O)O)NC(=O)[C@H](CCCNC(=N)N)NC(=O)[C@H](C)NC(=O)[C@H](C)NC(=O)[C@H](CCC(=O)O)NC(=O)[C@H](CCCCNC(=O)CC[C@H](NC(=O)CCCCCCCCCCCCCCCCC(=O)O)C(=O)O)NC(=O)[C@H](CC(=O)O)NC(=O)[C@H](CC(C)C)NC(=O)[C@@H](NC(=O)[C@@H](NC(=O)[C@H](C)NC(=O)[C@H](CC(C)C)NC(=O)[C@H](CCC(=O)O)NC(=O)[C@H](CO)NC(=O)[C@H](CO)NC(=O)[C@H](Cc1ccccc1)NC(=O)[C@@H](NC(=O)CNC(=O)[C@H](CCC(=O)O)NC(=O)C(C)(C)NC(=O)[C@@H](N)Cc1c[nH]cn1)[C@@H](C)O)[C@@H](C)O)[C@@H](C)CC)C(=O)N[C@@H](C)C(=O)N[C@@H](Cc1c[nH]c2ccccc12)C(=O)N[C@@H](CC(C)C)C(=O)N[C@H](C(=O)N[C@@H](CCC(=O)O)C(=O)N[C@@H](Cc1c[nH]cn1)C(=O)N[C@@H](CCCCN)C(=O)N[C@H](C(=O)N[C@H](C(=O)N[C@@H](CC(=O)O)C(=O)O)[C@@H](C)O)[C@@H](C)CC)[C@@H](C)CC

Biological target: human glucagon-like peptide 1 receptor (GLP-1R) (human, UniProt P43220)
Assay: cell-based or functional assay

Binder | EC50 GLP-1 (nM), cAMP AlphaScreen [nM]
H-H[Aib]EGTFTSELATILDK([KEK-γGlu-C20 diacid])QAARDFIAWLIQHKITD-OH [Compound 51] | 0.02
H-H[Aib]EGSFTSELATILEGK([AEEA-KEK-γGlu-C20 diacid])AARDFIAWLIEHKITD-OH [Compound 61] | 0.13
H-H[Aib]EGTFSSELATILDK([AEEA-KEK-γGlu-C18 diacid])QAARDFIAWLIQHKITD-OH [Compound 47] | 0.44
H-H[Aib]EGSFTSEK([AEEA-KEK-γGlu-C20 diacid])ATILDEQAARDFIAWLIEHKITD-OH [Compound 53] | 0.076
H-H[Aib]EGTFTSELATILDK([AEEA-KEK-γGlu-C20 diacid])QAARDFIAWLIEHKITD-OH [Compound 56] | 0.033
H-H[Aib]EGSFTSELATILDK([AEEA-KEK-γGlu-C20 diacid])QAARDFIAWLIAHKITD-OH [Compound 58] | 0.089
H-H[Aib]EGSFTSEK([AEEA-AEEA-KEK-γGlu-C20 diacid])ATILDEQAARDFIAWLIEHKITD-OH [Compound 55] | 0.11
H-H[Aib]EGSFTSELATILDK([AEEA-AEEA-KEK-γGlu-C20 diacid])QAARDFIAWLIEHKITD-OH [Compound 60] | 0.097
H-H[Aib]EGSFTSELATILDK([AEEA-KEK-γGlu-C20 diacid])QAARDFIAWLIEHKITD-OH [Compound 57] | 0.093
H-H[Aib]EGTFTSEK([AEEA-KEK-γGlu-C20 diacid])ATILDEQAARDFIAWLIEHKITD-OH [Compound 54] | 0.034
B1 | 0.13
B2 | 0.63
H-H[Aib]EGSFTSELATILDK([AEEA-KEK-γGlu-C20 diacid])KAARDFIAWLIEHKITD-OH [Compound 59] | 0.088
H-H[Aib]EGTFSSELATILDK([AEEA-KEK-γGlu-C18 diacid])QAARDFIAWLIEHKITD-OH [Compound 49] | 0.27
H-H[Aib]EGTFSSELATILDK([AEEA-KEK-γGlu-C20 diacid])QAARDFIAWLIEHKITD-OH [Compound 50] | 0.31
H-H[Aib]EGTFTSELATILDK([AEEA-KEK-γGlu-C20 diacid])QAARDFIAWLIQHKITD-OH [Compound 52] | 0.02
H-H[Aib]EGTFSSELATILDK([AEEA-KEK-γGlu-C20 diacid])QAARDFIAWLIQHKITD-OH [Compound 48] | 0.47

Biological target: T1, human GLP-2 receptor (hGLP2-R) (human, UniProt O95838)
T1 sequence: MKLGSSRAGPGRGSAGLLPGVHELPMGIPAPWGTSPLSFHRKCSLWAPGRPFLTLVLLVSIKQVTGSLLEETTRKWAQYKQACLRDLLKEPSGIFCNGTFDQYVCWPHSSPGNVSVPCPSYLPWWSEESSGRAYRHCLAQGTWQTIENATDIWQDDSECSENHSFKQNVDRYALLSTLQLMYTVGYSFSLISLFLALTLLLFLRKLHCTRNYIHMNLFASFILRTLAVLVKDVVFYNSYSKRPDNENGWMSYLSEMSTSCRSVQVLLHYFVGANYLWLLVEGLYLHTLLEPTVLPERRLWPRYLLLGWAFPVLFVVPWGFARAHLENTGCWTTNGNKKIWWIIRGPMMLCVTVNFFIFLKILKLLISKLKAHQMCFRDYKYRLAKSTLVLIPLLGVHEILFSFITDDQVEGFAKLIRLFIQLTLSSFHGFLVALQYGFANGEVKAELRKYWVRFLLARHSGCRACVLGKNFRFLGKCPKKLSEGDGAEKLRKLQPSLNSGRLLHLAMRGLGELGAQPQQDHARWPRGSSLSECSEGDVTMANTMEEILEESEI
Assay: cell-based or functional assay

Binder | EC50 GLP-2 (nM), cAMP AlphaScreen [nM]
H-H[Aib]EGTFTSELATILDK([KEK-γGlu-C20 diacid])QAARDFIAWLIQHKITD-OH [Compound 51] | 0.18
H-H[Aib]EGSFTSELATILEGK([AEEA-KEK-γGlu-C20 diacid])AARDFIAWLIEHKITD-OH [Compound 61] | 0.2
H-H[Aib]EGTFSSELATILDK([AEEA-KEK-γGlu-C18 diacid])QAARDFIAWLIQHKITD-OH [Compound 47] | 0.048
H-H[Aib]EGSFTSEK([AEEA-KEK-γGlu-C20 diacid])ATILDEQAARDFIAWLIEHKITD-OH [Compound 53] | 0.24
H-H[Aib]EGTFTSELATILDK([AEEA-KEK-γGlu-C20 diacid])QAARDFIAWLIEHKITD-OH [Compound 56] | 0.076
H-H[Aib]EGSFTSELATILDK([AEEA-KEK-γGlu-C20 diacid])QAARDFIAWLIAHKITD-OH [Compound 58] | 0.09
H-H[Aib]EGSFTSEK([AEEA-AEEA-KEK-γGlu-C20 diacid])ATILDEQAARDFIAWLIEHKITD-OH [Compound 55] | 0.78
H-H[Aib]EGSFTSELATILDK([AEEA-AEEA-KEK-γGlu-C20 diacid])QAARDFIAWLIEHKITD-OH [Compound 60] | 0.074
H-H[Aib]EGSFTSELATILDK([AEEA-KEK-γGlu-C20 diacid])QAARDFIAWLIEHKITD-OH [Compound 57] | 0.083
H-H[Aib]EGTFTSEK([AEEA-KEK-γGlu-C20 diacid])ATILDEQAARDFIAWLIEHKITD-OH [Compound 54] | 0.99
B1 | 0.25
B2 | 0.35
H-H[Aib]EGSFTSELATILDK([AEEA-KEK-γGlu-C20 diacid])KAARDFIAWLIEHKITD-OH [Compound 59] | 0.11
H-H[Aib]EGTFSSELATILDK([AEEA-KEK-γGlu-C18 diacid])QAARDFIAWLIEHKITD-OH [Compound 49] | 0.044
H-H[Aib]EGTFSSELATILDK([AEEA-KEK-γGlu-C20 diacid])QAARDFIAWLIEHKITD-OH [Compound 50] | 0.056
H-H[Aib]EGTFTSELATILDK([AEEA-KEK-γGlu-C20 diacid])QAARDFIAWLIQHKITD-OH [Compound 52] | 0.075
H-H[Aib]EGTFSSELATILDK([AEEA-KEK-γGlu-C20 diacid])QAARDFIAWLIQHKITD-OH [Compound 48] | 0.054

— patent publication US20250073311A1, “DOSAGE REGIME” (ZEALAND PHARMA A/S, priority 2021, published 2025)
